# Measurements: publication PMC9482650, “Quantitative fragmentomics allow affinity mapping of interactomes” (Nature Communications, 2022)
# Substitutions are numbered along the chain they refer to.
# T1: SIPA1L2, Q9P2F8
# T1 sequence (Q9P2F8 945-1036, limits assumed, looked up): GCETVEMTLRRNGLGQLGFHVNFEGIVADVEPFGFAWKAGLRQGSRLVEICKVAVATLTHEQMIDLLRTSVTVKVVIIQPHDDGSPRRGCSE
# T2: PDZRN3_1, Q9UPQ7
# T2 sequence (Q9UPQ7 244-349, limits assumed, looked up): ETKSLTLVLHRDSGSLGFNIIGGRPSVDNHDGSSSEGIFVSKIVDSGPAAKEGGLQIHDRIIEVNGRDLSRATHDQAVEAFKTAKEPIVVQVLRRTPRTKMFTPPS
# T3: LIN7B, Q9HAP6
# T3 sequence (Q9HAP6 88-185, limits assumed, looked up): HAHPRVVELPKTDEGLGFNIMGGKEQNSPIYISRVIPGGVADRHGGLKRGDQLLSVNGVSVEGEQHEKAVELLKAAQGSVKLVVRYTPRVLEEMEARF
# T4: DLG3_3, Q92796
# T4 sequence (Q92796 374-475, limits assumed, looked up): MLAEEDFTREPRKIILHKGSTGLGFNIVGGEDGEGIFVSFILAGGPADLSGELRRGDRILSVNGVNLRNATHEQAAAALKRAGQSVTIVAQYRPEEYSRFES
# T5: DFNB31_1, Q9P202
# T5 sequence (Q9P202 135-233, limits assumed, looked up): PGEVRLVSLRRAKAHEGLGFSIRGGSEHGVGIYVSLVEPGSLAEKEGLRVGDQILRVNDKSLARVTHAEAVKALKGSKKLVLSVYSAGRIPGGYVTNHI
# T6: ARHGEF11, O15085
# T6 sequence (O15085 42-136, limits assumed, looked up): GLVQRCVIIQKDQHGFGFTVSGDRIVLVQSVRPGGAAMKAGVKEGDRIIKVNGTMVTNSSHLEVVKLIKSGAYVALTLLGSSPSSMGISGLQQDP
# T7: LIN7C, Q9NUP9
# T7 sequence (Q9NUP9 88-185, limits assumed, looked up): T3 sequence (Q9HAP6 88-185, limits assumed, looked up) with A2S, D13E, V35I, V40I, Q65H, S79K, R89K, A96S
# T8: HTRA3, P83110
# T8 sequence (P83110 354-453, limits assumed, looked up): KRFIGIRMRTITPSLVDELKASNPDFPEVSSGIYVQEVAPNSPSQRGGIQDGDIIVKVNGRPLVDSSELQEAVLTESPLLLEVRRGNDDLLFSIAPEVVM
# T9: DFNB31_3, Q9P202
# T9 sequence (Q9P202 811-907, limits assumed, looked up): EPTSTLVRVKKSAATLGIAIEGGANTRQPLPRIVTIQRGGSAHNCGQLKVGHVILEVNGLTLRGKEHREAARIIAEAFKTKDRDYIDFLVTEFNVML
# T10: MPP7, Q5T2T1
# T10 sequence (Q5T2T1 134-230, limits assumed, looked up): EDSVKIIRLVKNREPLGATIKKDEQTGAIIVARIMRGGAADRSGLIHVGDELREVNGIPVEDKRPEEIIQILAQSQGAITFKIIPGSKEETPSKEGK
# T11: GRIP1_3, Q9Y3R0
# T11 sequence (Q9Y3R0 247-346, limits assumed, looked up): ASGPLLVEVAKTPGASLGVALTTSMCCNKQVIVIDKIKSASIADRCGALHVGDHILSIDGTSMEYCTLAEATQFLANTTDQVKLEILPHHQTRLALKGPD
# T12: GRIP1_4, Q9Y3R0
# T12 sequence (Q9Y3R0 467-571, limits assumed, looked up): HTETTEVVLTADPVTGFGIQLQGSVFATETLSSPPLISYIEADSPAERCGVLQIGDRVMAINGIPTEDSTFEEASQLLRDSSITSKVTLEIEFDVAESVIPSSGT
# T13: SNTA1, Q13424
# T13 sequence (Q13424 82-180, limits assumed, looked up): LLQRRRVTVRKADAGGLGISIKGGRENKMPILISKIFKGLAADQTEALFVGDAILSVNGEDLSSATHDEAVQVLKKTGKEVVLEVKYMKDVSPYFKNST
# Molecular target: T1, SIPA1L2, Q9P2F8
# Test: holdup assay
# Parameters: key: below the threshold = too weak to quantify, mostly under pKd 3.1 to 4
# Details: plain residues with an end cap or a label only (N-terminal biotin on a linker: ado-ado)
row,pKd,Binder
1,below the threshold,"DLLGGGSDSI [TNRC6B, Q9UPQ9]"
2,below the threshold,"NSTHNLKDYV [CLDN20, P56880]"

# Molecular target: T2, PDZRN3_1, Q9UPQ7
# Test: holdup assay
# Parameters: key: below the threshold = too weak to quantify, mostly under pKd 3.1 to 4
# Details: plain residues with an end cap or a label only (N-terminal biotin on a linker: ado-ado)
row,pKd,Binder
1,below the threshold,"DLLGGGSDSI [TNRC6B, Q9UPQ9]"
2,3.83,"NSTHNLKDYV [CLDN20, P56880]"

# Molecular target: DLG4_2, P78352
# Test: holdup assay
# Parameters: key: below the threshold = too weak to quantify, mostly under pKd 3.1 to 4
# Details: plain residues with an end cap or a label only (N-terminal biotin on a linker: ado-ado)
# DLG4_2, P78352, sequence (P78352 155-259): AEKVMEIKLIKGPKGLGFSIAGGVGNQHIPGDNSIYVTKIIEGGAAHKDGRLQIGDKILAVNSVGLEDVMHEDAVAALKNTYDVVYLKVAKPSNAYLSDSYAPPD
row,pKd,Binder
1,3.5,"DLLGGGSDSI [TNRC6B, Q9UPQ9]"
2,below the threshold,"NSTHNLKDYV [CLDN20, P56880]"

# Molecular target: NHERF4_2, Q86UT5
# Test: holdup assay
# Parameters: key: below the threshold = too weak to quantify, mostly under pKd 3.1 to 4
# Details: plain residues with an end cap or a label only (N-terminal biotin on a linker: ado-ado)
# NHERF4_2, Q86UT5, sequence (Q86UT5 220-308): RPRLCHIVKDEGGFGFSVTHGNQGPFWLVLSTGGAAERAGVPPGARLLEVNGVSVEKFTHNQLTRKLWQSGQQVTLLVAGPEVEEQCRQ
row,pKd,Binder
1,below the threshold,"DLLGGGSDSI [TNRC6B, Q9UPQ9]"
2,below the threshold,"NSTHNLKDYV [CLDN20, P56880]"

# Molecular target: T3, LIN7B, Q9HAP6
# Test: holdup assay
# Parameters: key: below the threshold = too weak to quantify, mostly under pKd 3.1 to 4
# Details: plain residues with an end cap or a label only (N-terminal biotin on a linker: ado-ado)
row,pKd,Binder
1,3.61,"DLLGGGSDSI [TNRC6B, Q9UPQ9]"
2,below the threshold,"NSTHNLKDYV [CLDN20, P56880]"

# Molecular target: T4, DLG3_3, Q92796
# Test: holdup assay
# Parameters: key: below the threshold = too weak to quantify, mostly under pKd 3.1 to 4
# Details: plain residues with an end cap or a label only (N-terminal biotin on a linker: ado-ado)
row,pKd,Binder
1,below the threshold,"DLLGGGSDSI [TNRC6B, Q9UPQ9]"
2,below the threshold,"NSTHNLKDYV [CLDN20, P56880]"

# Molecular target: T5, DFNB31_1, Q9P202
# Test: holdup assay
# Parameters: key: below the threshold = too weak to quantify, mostly under pKd 3.1 to 4
# Details: plain residues with an end cap or a label only (N-terminal biotin on a linker: ado-ado)
row,pKd,Binder
1,below the threshold,"DLLGGGSDSI [TNRC6B, Q9UPQ9]"
2,below the threshold,"NSTHNLKDYV [CLDN20, P56880]"

# Molecular target: FRMPD4, Q14CM0
# Test: holdup assay
# Parameters: key: below the threshold = too weak to quantify, mostly under pKd 3.1 to 4
# Details: plain residues with an end cap or a label only (N-terminal biotin on a linker: ado-ado)
# FRMPD4, Q14CM0, sequence (Q14CM0 67-160): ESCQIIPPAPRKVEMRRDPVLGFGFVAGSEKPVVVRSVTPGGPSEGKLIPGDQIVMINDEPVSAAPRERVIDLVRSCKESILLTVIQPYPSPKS
row,pKd,Binder
1,3.56,"DLLGGGSDSI [TNRC6B, Q9UPQ9]"
2,below the threshold,"NSTHNLKDYV [CLDN20, P56880]"

# Molecular target: GORASP1, Q9BQQ3
# Test: holdup assay
# Parameters: key: below the threshold = too weak to quantify, mostly under pKd 3.1 to 4
# Details: plain residues with an end cap or a label only (N-terminal biotin on a linker: ado-ado)
# GORASP1, Q9BQQ3, sequence (Q9BQQ3 1-208): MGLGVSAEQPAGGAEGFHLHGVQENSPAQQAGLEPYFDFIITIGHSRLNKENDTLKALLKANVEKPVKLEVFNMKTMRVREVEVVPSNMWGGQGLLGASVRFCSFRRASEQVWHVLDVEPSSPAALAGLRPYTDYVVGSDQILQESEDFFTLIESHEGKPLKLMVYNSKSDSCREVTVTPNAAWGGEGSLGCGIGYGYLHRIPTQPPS
row,pKd,Binder
1,below the threshold,"DLLGGGSDSI [TNRC6B, Q9UPQ9]"
2,below the threshold,"NSTHNLKDYV [CLDN20, P56880]"

# Molecular target: GRIP2_5, Q9C0E4
# Test: holdup assay
# Parameters: key: below the threshold = too weak to quantify, mostly under pKd 3.1 to 4
# Details: plain residues with an end cap or a label only (N-terminal biotin on a linker: ado-ado)
# GRIP2_5, Q9C0E4, sequence (Q9C0E4 544-642): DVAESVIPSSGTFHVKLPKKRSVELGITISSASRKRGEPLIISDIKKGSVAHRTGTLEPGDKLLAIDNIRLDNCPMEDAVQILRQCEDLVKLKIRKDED
row,pKd,Binder
1,below the threshold,"DLLGGGSDSI [TNRC6B, Q9UPQ9]"
2,below the threshold,"NSTHNLKDYV [CLDN20, P56880]"

# Molecular target: GORASP2, Q9H8Y8
# Test: holdup assay
# Parameters: key: below the threshold = too weak to quantify, mostly under pKd 3.1 to 4
# Details: plain residues with an end cap or a label only (N-terminal biotin on a linker: ado-ado)
row,pKd,Binder
1,below the threshold,"DLLGGGSDSI [TNRC6B, Q9UPQ9]"
2,below the threshold,"NSTHNLKDYV [CLDN20, P56880]"

# Molecular target: T6, ARHGEF11, O15085
# Test: holdup assay
# Parameters: key: below the threshold = too weak to quantify, mostly under pKd 3.1 to 4
# Details: plain residues with an end cap or a label only (N-terminal biotin on a linker: ado-ado)
row,pKd,Binder
1,3.65,"DLLGGGSDSI [TNRC6B, Q9UPQ9]"
2,below the threshold,"NSTHNLKDYV [CLDN20, P56880]"

# Molecular target: GIPC2, Q8TF65
# Test: holdup assay
# Parameters: key: below the threshold = too weak to quantify, mostly under pKd 3.1 to 4
# Details: plain residues with an end cap or a label only (N-terminal biotin on a linker: ado-ado)
# GIPC2, Q8TF65, sequence (Q8TF65 112-203): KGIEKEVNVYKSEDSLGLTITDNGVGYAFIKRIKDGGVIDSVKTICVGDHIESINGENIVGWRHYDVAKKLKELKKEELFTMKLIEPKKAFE
row,pKd,Binder
1,3.55,"DLLGGGSDSI [TNRC6B, Q9UPQ9]"
2,below the threshold,"NSTHNLKDYV [CLDN20, P56880]"

# Molecular target: MAGI2_4, Q86UL8
# Test: holdup assay
# Parameters: key: below the threshold = too weak to quantify, mostly under pKd 3.1 to 4
# Details: plain residues with an end cap or a label only (N-terminal biotin on a linker: ado-ado)
# MAGI2_4, Q86UL8, sequence (Q86UL8 772-865): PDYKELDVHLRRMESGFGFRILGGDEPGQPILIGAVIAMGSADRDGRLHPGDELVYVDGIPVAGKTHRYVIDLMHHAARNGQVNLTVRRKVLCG
row,pKd,Binder
1,below the threshold,"DLLGGGSDSI [TNRC6B, Q9UPQ9]"
2,below the threshold,"NSTHNLKDYV [CLDN20, P56880]"

# Molecular target: T7, LIN7C, Q9NUP9
# Test: holdup assay
# Parameters: key: below the threshold = too weak to quantify, mostly under pKd 3.1 to 4
# Details: plain residues with an end cap or a label only (N-terminal biotin on a linker: ado-ado)
row,pKd,Binder
1,3.48,"DLLGGGSDSI [TNRC6B, Q9UPQ9]"
2,below the threshold,"NSTHNLKDYV [CLDN20, P56880]"

# Molecular target: CASK, O14936
# Test: holdup assay
# Parameters: key: below the threshold = too weak to quantify, mostly under pKd 3.1 to 4
# Details: plain residues with an end cap or a label only (N-terminal biotin on a linker: ado-ado)
# CASK, O14936, sequence (O14936 487-570): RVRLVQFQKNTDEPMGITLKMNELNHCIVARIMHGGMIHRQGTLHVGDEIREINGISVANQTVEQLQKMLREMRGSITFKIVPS
row,pKd,Binder
1,below the threshold,"DLLGGGSDSI [TNRC6B, Q9UPQ9]"
2,below the threshold,"NSTHNLKDYV [CLDN20, P56880]"

# Molecular target: T8, HTRA3, P83110
# Test: holdup assay
# Parameters: key: below the threshold = too weak to quantify, mostly under pKd 3.1 to 4
# Details: plain residues with an end cap or a label only (N-terminal biotin on a linker: ado-ado)
row,pKd,Binder
1,below the threshold,"DLLGGGSDSI [TNRC6B, Q9UPQ9]"
2,3.97,"NSTHNLKDYV [CLDN20, P56880]"

# Molecular target: T9, DFNB31_3, Q9P202
# Test: holdup assay
# Parameters: key: below the threshold = too weak to quantify, mostly under pKd 3.1 to 4
# Details: plain residues with an end cap or a label only (N-terminal biotin on a linker: ado-ado)
row,pKd,Binder
1,4.01,"DLLGGGSDSI [TNRC6B, Q9UPQ9]"
2,below the threshold,"NSTHNLKDYV [CLDN20, P56880]"

# Molecular target: T10, MPP7, Q5T2T1
# Test: holdup assay
# Parameters: key: below the threshold = too weak to quantify, mostly under pKd 3.1 to 4
# Details: plain residues with an end cap or a label only (N-terminal biotin on a linker: ado-ado)
row,pKd,Binder
1,below the threshold,"DLLGGGSDSI [TNRC6B, Q9UPQ9]"
2,below the threshold,"NSTHNLKDYV [CLDN20, P56880]"

# Molecular target: T11, GRIP1_3, Q9Y3R0
# Test: holdup assay
# Parameters: key: below the threshold = too weak to quantify, mostly under pKd 3.1 to 4
# Details: plain residues with an end cap or a label only (N-terminal biotin on a linker: ado-ado)
row,pKd,Binder
1,below the threshold,"DLLGGGSDSI [TNRC6B, Q9UPQ9]"
2,below the threshold,"NSTHNLKDYV [CLDN20, P56880]"

# Molecular target: Inadl_2, Q8NI35
# Test: holdup assay
# Parameters: key: below the threshold = too weak to quantify, mostly under pKd 3.1 to 4
# Details: plain residues with an end cap or a label only (N-terminal biotin on a linker: ado-ado)
# Inadl_2, Q8NI35, sequence (Q8NI35 238-335): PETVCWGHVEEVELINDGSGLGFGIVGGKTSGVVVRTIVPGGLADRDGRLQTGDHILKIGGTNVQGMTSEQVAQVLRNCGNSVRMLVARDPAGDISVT
row,pKd,Binder
1,below the threshold,"DLLGGGSDSI [TNRC6B, Q9UPQ9]"
2,below the threshold,"NSTHNLKDYV [CLDN20, P56880]"

# Molecular target: T12, GRIP1_4, Q9Y3R0
# Test: holdup assay
# Parameters: key: below the threshold = too weak to quantify, mostly under pKd 3.1 to 4
# Details: plain residues with an end cap or a label only (N-terminal biotin on a linker: ado-ado)
row,pKd,Binder
1,below the threshold,"DLLGGGSDSI [TNRC6B, Q9UPQ9]"
2,below the threshold,"NSTHNLKDYV [CLDN20, P56880]"

# Molecular target: GRID2IP_1, A4D2P6
# Test: holdup assay
# Parameters: key: below the threshold = too weak to quantify, mostly under pKd 3.1 to 4
# Details: plain residues with an end cap or a label only (N-terminal biotin on a linker: ado-ado)
# GRID2IP_1, A4D2P6, sequence (A4D2P6 1-87): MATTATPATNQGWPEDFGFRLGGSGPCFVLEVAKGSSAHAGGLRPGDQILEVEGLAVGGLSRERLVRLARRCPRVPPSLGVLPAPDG
row,pKd,Binder
1,below the threshold,"DLLGGGSDSI [TNRC6B, Q9UPQ9]"
2,below the threshold,"NSTHNLKDYV [CLDN20, P56880]"

# Molecular target: T13, SNTA1, Q13424
# Test: holdup assay
# Parameters: key: below the threshold = too weak to quantify, mostly under pKd 3.1 to 4
# Details: plain residues with an end cap or a label only (N-terminal biotin on a linker: ado-ado)
row,pKd,Binder
1,below the threshold,"DLLGGGSDSI [TNRC6B, Q9UPQ9]"
2,below the threshold,"NSTHNLKDYV [CLDN20, P56880]"

# Molecular target: GOPC, Q9HD26
# Test: holdup assay
# Parameters: key: below the threshold = too weak to quantify, mostly under pKd 3.1 to 4
# Details: plain residues with an end cap or a label only (N-terminal biotin on a linker: ado-ado)
row,pKd,Binder
1,below the threshold,"DLLGGGSDSI [TNRC6B, Q9UPQ9]"
2,below the threshold,"NSTHNLKDYV [CLDN20, P56880]"
